Molecular target: ribosomal associated protein L22 (human, UniProt P35268)
Test: co-immunoprecipitation from 293 cell lysate, Western blot
Method: Multi-tissue northern blots (Clontech) were hybridized with a 0.7 kb BamHI-EcoRI hStau cDNA probe according to the manufacturer's procedures. In particular, blots were hybridized at 68° C. in ExpressHyb solution (Clontech) for 1 hour with shaking. Blots were washed several times in 2×SSC, 0.05% SDS at room temperature, with a final wash in 0.1×SSC and 0.1% SDS at 60° C. for about 40 minutes. The blots then were re-probed with an actin probe without stripping the hStau signal. Signal intensity was quantified on a BAS 1500 PhosphorImager system (Fuji Medical System, Inc, Stamford, Conn.).

binding result: no binding
B1: human staufen (hStau) polypeptide (other)
chain: MKLGKKPMYKPVDPYSRMRSTYNYNMRGGAYPPRYFYPFPVPPLLYQVELSVGGQQFNGKGKTRQAAKHDAAAKALRILQNEPLPERLEVNGRESEEENLNKSEISQVFEIALKRNLPVNFEVARESGPPHMKNFVTKVSVGEFVGEGEGKSKKISKKNAAIAVLEELKKLPPLPAVERVKPRIKKKTKPIVKPQTSPEYGQGINPISRLAQIQQAKKEKEPEYTLLTERGLPRRREFVMQVKVGNHTAEGTGTNKKVAKRNAAENMLEILGFKVPQAQPTKPALKSEEKTPIKKPGDGRKVTFFEPGSGDENGTSNKEDEFRMPYLSHQQLPAGILPMVPEVAQAVGVSQGHHTKDFTRAAPNPAKATVTAMIARELLYGGTSPTAETILKNNISSGHVPHGPLTRPSEQLDYLSRVQGFQVEYKDFPKNNKNEFVSLINCSSQPPLISHGIGKDVESCHDMAALNILKLLSELDQQSTEMPRTGNGPMSVCGRC
